Test results reported in article PMC7589614.
Read-outs that look alike come from different tables or passages of the source.

Experiments:
[1] = target: AbnA-D2 (D2), his-tagged arabinase family protein (Geobacillus stearothermophilus T-6) (UniProt B3EYN2); settings: 5'-amino; Selection buffers listed (assay buffer and temperature not stated in material): AGR2 137 mM NaCl, 20 mM KCl, 10 mM Na2HPO4, 2 mM KH2PO4 pH 7.4; 6H7 50 mM …; cited from earlier work
[2] = target: AbnA-D2 (D2), his-tagged arabinase family protein (Geobacillus stearothermophilus T-6) (UniProt B3EYN2); assay: porous silicon RIFTS (EOT) biosensor; settings: 5'-amino; Selection buffers listed (assay buffer and temperature not stated in material): AGR2 137 mM NaCl, 20 mM KCl, 10 mM Na2HPO4, 2 mM KH2PO4 pH 7.4; 6H7 50 mM …

## GCTATGGGTGGTCTGGTTGGGATTGGCCCCGGGAGCTGGC [anti-his tag aptamer 6H7]
[1]
  Kd: 4.6 µM
[2]
  Kd: 29 µM
